Here are results for twelve molecules from patent US20210292392A1 (TSB THERAPEUTICS BEIJING, published 2021).

Positions count from the first letter of the chain named. Numbers in names are those of the source.

The term Kd denotes the free concentration of one partner at which half of the binding sites on the other are occupied at equilibrium, for simple one-to-one binding. High values mean lower affinity, low ones higher affinity.

Test [1] deals with full length spike (S) protein of SARS-CoV-2 (SARS-CoV-2, UniProt P0DTC2 14-1273). The test is described as follows: cell-based or functional assay.
Test [2] addresses receptor-binding domain (RBD) of the spike protein of SARS-CoV-2 (SARS-CoV-2, UniProt P0DTC2 319-541).

B1: P2A-1A9 (antibody, V domains shown)
VH: EVQLVESGGGLVQPGRSLRLSCAASGFTFDDYAMHWVRQVPGKGLEWVSGISWNGGIIGYADSVKGRFTISRDNAKTSLYLQMNSLRAEDTALYYCAKVAGRGDYDYYYGMDVWGQGTTVTVSS
VL: QSVLTQPPSVSGAPGQRVTISCTGSSSNIGAGYDVHWYQQLPGTAPKLLIYGNNNRPSGVPDRFSGSKSGTSASLAITGLQAEDEADYYCQSYDSSLSGSVFGGGTKLTVLG
Consider B1, for which, in test [1], the “IC50, pseudovirus neutralization” value is 26.3 µg/mL; the “Neutralizing activity (%) Mean at 0.0228624 µg/ml” value amounted to 12.5%; the “Neutralizing activity (%) Mean at 0.0685871 µg/ml” value was 15.9%; the “Neutralizing activity (%) Mean at 0.2057613 µg/ml” value was found to be 15.1%. In addition, in test [1], the “Neutralizing activity (%) Mean at 0.6172839 µg/ml” value amounted to 14.3%, the “Neutralizing activity (%) Mean at 1.851852 µg/ml” value is 15.9%, the “Neutralizing activity (%) Mean at 5.555555 µg/ml” value is 34.8% and the “Neutralizing activity (%) Mean at 16.66667 µg/ml” value is 41.2%. In addition, in test [1], the “Neutralizing activity (%) Mean at 50 µg/ml” value amounted to 62.6%.

B2: P5A-1D2 (antibody, human IgG1, lambda, V domains shown)
VH: EVQLVESGGGLIQPGGSLRLSCAASGFIVSSNYMSWVRQAPGKGLEWVSIIYSGGSTYYADSVKGRFTISRDNSNNTLYLQMNSLRAEDTAVYYCARALQVGATSDYFDYWGQGTLVTVSS
VL: B1 VL with N54S, A86T, Y93C, G99V, S100V
With B2, in test [2], the Kd stood at 14 nM.

B3: P2B-2G11 (antibody, V domains shown)
VH: B1 VH with V40A, R87K, A88P
VL: B1 VL
Regarding B3, in test [1], the “IC50, pseudovirus neutralization” value came out at 34.8 µg/mL; the “Neutralizing activity (%) Mean at 0.0228624 µg/ml” value was found to be 3.81%; the “Neutralizing activity (%) Mean at 0.0685871 µg/ml” value worked out at 13.9%; the “Neutralizing activity (%) Mean at 0.2057613 µg/ml” value amounted to 12.8%. In test [1], the “Neutralizing activity (%) Mean at 1.851852 µg/ml” value worked out at 16%, the “Neutralizing activity (%) Mean at 5.555555 µg/ml” value came out at 19%, the “Neutralizing activity (%) Mean at 16.66667 µg/ml” value came to 25.9% and the “Neutralizing activity (%) Mean at 50 µg/ml” value is 64.4%.

B4: P2B-2G4 (antibody, V domains shown)
VH: QVQLVESGGGVVQPGRSLRLSCAASGFTFSSYGMHWVRQAPGKGLEWVAVIWYDGSNKYYADSVKGRFTISRDNSKNTLYLQMNSLRAEDTAVYYCARGAAMVWLDYWGQGTLVTVSS
VL: QSALTQPRSVSGSPGQSVTISCTGTSSDVGGYNYVSWYQQHPGKAPKLMIYDVSKRPSGVPDRFSGSKSGNTASLTISGLQAEDEADYYCCSYAGSYTFVVFGGGTKLTVLG
Regarding B4, in test [1], the “IC50, pseudovirus neutralization” value came to 5.11 µg/mL; the “Neutralizing activity (%) Mean at 0.0228624 µg/ml” value was -3.33%; the “Neutralizing activity (%) Mean at 0.0685871 µg/ml” value is -8.88%; the “Neutralizing activity (%) Mean at 0.2057613 µg/ml” value amounted to 10.4%. Moreover, in test [1], the “Neutralizing activity (%) Mean at 0.6172839 µg/ml” value came to 20.2%, the “Neutralizing activity (%) Mean at 1.851852 µg/ml” value amounted to 35.4%, the “Neutralizing activity (%) Mean at 5.555555 µg/ml” value is 46.4% and the “Neutralizing activity (%) Mean at 16.66667 µg/ml” value is 65.2%. Besides, the “Neutralizing activity (%) Mean at 50 µg/ml” value in test [1] was found to be 74.8%.

B5: P5A-2G7 (antibody, human IgG1, lambda, V domains shown)
VH: QVQLQESGPGLVKPSETLSLTCTVSGDSVSSGSYYWSWIRQPPGKGLEWIGYIYYSGSTNYNPSLKSRVTISVDTSKNQFSLKLSSVTAADTAVYYCARERCYYGSGRAPRCVWFDPWGQGTLVTVSS
VL: B4 VL with R8A, V18I, K55N, P61S, D62N, C91S, A94T, G95S, Y97S, F99L
As for B5, the Kd in test [2] is 3.95 nM.

B6: P5A-2G9 (antibody, human IgG1, lambda, V domains shown)
VH: QVQLVESGGGVVQPGRSLRLSCAASGFTFSSYGMHWVRQAPGKGLEWVAVIWYDGSNKYYADSVKGRFTISRDNSKNTLYLQMNSLRAEDTAVYYCARWFHTGGYFDYWGQGTLVTVSS
VL: QPVLTQPPSSSASPGESARLTCTLPSDINVSSYNIYWYQQKPGSPPRYLLYYYSDSDKGQGSGVPSRFSGSKDASANTGILLISGLQSEDEADYYCMIWPSNALYVFGTGTKVTVLG
Consider B6, for which binding in test [2] was characterised by a dissociation constant (Kd) of 15.9 nM.

B7: P2A-1B3 (antibody, V domains shown)
VH: EVQLVESGGGLVQPGGSLRLSCVASGFSFNRYSMNWLRQTPRKGLEWLSYISASGNTIYYADSVRGRFTTSRDNAKNTLYLQMNSLRDDDTAVYFCARPAMVREGTYNWFDPWGQGTLVTVSS
VL: EIVLTQSPGTLSLSPGERATLSCRASQSVSNDYLAWYQQKPGQAPRLLIYYASSRATGIPDRFSGSGSGTDFTLTISRLEPGDSAVYYCQQYGDSPPITFGQGTRLEIKR
Take B7: in test [1], the “IC50, pseudovirus neutralization” value came out at 16.8 µg/mL; the “Neutralizing activity (%) Mean at 0.0228624 µg/ml” value came to 11.5%; the “Neutralizing activity (%) Mean at 0.0685871 µg/ml” value was -0.545%; the “Neutralizing activity (%) Mean at 0.2057613 µg/ml” value was 10.2%. Also, in test [1], the “Neutralizing activity (%) Mean at 0.6172839 µg/ml” value was 23.3%, the “Neutralizing activity (%) Mean at 1.851852 µg/ml” value was determined as 22.1%, the “Neutralizing activity (%) Mean at 5.555555 µg/ml” value is 37.2% and the “Neutralizing activity (%) Mean at 16.66667 µg/ml” value turned out to be 43.6%. Further, in test [1], the “Neutralizing activity (%) Mean at 50 µg/ml” value came out at 74.9%.

B8: P2B-1A10 (antibody, human IgG1, kappa, V domains shown)
VH: EVQLVESGGGLIQPGGSLRLSCAASGFTVSSNYMSWVRQAPGKGLEWVSVIYSGGSTYYADSVKGRFTISRDNSKNTLYLQMNSLRAEDTAVYYCAREGPKSITGTAFDIWGQGTIVTVSS
VL: DIQMTQSPSSLSASVGDRVTITCQASQDISNYFNWYQQKPGKAPKLLIYDASNLETGVPSRFSGSGSGTDFTFTISSLQPEDIATYYCQQYDNLPMYTFGQGTKLEIKR
In turn, B8 came in with a Kd in test [2] of 38.4 nM.

B9: P5A-3C8 (antibody, human IgG1, kappa, V domains shown)
VH: EVQLVESGGGLIQPGGSLRLSCAASGFTVSSNYMSWVRQAPGKGLEWVSFIYSGGSTYYADSVKGRFTISRDNSKNTLYLQMNSLRAEDTAVYYCARDLQEHGMDVWGQGTTVTVSS
VL: DIQLTQSPSSLSASVGDRVTITCRASQGISSYLAWYQQKPGKAPKLLIYAASTLQSGVPSRFSGSGSGTDFTLTISSLQPEDFATYYCQHLNSYPPGYTFGQGTKLEIKR
The molecule B9 returned a Kd in test [2] of 1.3 nM.

B10: P22A-1D1 (antibody, human IgG1, kappa, V domains shown)
VH: B9 VH with F50V, L99R, Q100D, E101Y, H102Y
VL: DIQLTQSPSFLSASVGDRVTITCRASQGISSYLAWYQQKPGKAPKLLIYAASTLQSGVPSRFSGSGSGTEFTLTISSLQPEDFATYYCLHLNSYRTFGLGTKVEIKR
For B10, the Kd in test [2] came out at 5.79 nM.

B11: P5A-1B8 (antibody, human IgG1, kappa, V domains shown)
VH: EVQLVESGGGLIQPGGSLRLSCAASGFTVSSNYMSWVRQAPGKGLEWVSVIYPGGSTFYADSVKGRFTISRDNSKNTLYLQMNSLRAEDTAVYYCARETLAFDYWGQGTLVTVSS
VL: DIQLTQSPSFLSASVGDRVTITCRASQGISSYLAWYQQKPGKAPKLLIYAASTLQSGVPSRFSGSGSGTEFTLTISSLQPEDFATYYCQQLNSYPPAFGGGTKVEIKR
For the molecule B11, in test [2], binding was characterised by a dissociation constant (Kd) of 4.28 nM.

B12: P5A-3C12 (antibody, human IgG1, kappa, V domains shown)
VH: QITLKESGPTLVKPTQTLTLTCTFSGFSLSTSGVGVGWIRQPPGKALEWLALIYWDDDKRYSPSLKSRLTITKDTSKNQVVLTMTNMDPVDTATYYCAHSLFLTVGYSSSWSPFDYWGQGTLVTVSS
VL: not shown
Consider B12, for which binding in test [2] was put at a Kd of 8.47 nM.
